The source of these data is publication PMC9737693, “Efficient Production of Fc Fusion Proteins in the Cytoplasm of Escherichia coli: Dissecting and Mitigating Redox Heterogeneity” (International Journal of Molecular Sciences, 2022).

The series deals with the molecule itself. Nature of the series: non-reducing SDS-PAGE; purified proteins, non-reduced and trapped with 25 mM NEM at room temperature for 10 min, SDS-PAGE, Coomassie Blue R-250; dimer seen as a covalently (disulfide) linked band.

B1: IgG1 CH2 domain with the hinge region (T106-A222) (domain or fragment, human, UniProt P01857 106-222, looked up)
chain: THTCPPCPAPELLGGPSVFLFPPKPKDTLMISRTPEVTCVVVDVSHEDPEVKFNWYVDGVEVHNAKTKPREEQYNSTYRVVSVLTVLHQDWLNGKEYKCKVSNKALPAPIEKTISKA
notes: human IgG1 hinge region and CH2 domain, residues T106-A222 of immunoglobulin heavy constant gamma 1, amplified from pAAT44; The dimer is told only for the protein made in the presence of CyDisCo (intermolecular hinge disulfide); also called IgG1 CH2 domain with hinge; hinge region fused to the CH2 domain; source: E. coli BL21(DE3) cytoplasm with CyDisCo (Erv1p, PDI), purified (cobalt IMAC)
On to B1, for which the binding result was “binds”.
